Key:
[1] = target: chicken Netrin-1 expressed in COS7 cells (chicken, UniProt Q90922 26-606); assay: cell surface binding assay on transfected COS7 cells, fluorescence microscopy
Experimental: (§1) The resultant fusion proteins were expressed and used in binding assays over a panel of ˜400 putative cell surface transmembrane or GPI-anchored cell surface human proteins that were transiently expressed in COS7 cells. Purified ECD-Fc fusion proteins (0.5 μg/ml) or the crude baculovirus lysates were added to transiently transfected COS7 cells for 1-2 hours at room temperature. After 3 rinses with cold phosphate buffered saline (PBS), the bound protein was cross-linked to the cell surface with 4% paraformaldehyde. The bound Fc fusion protein was detected by biotinylated anti-human IgGFc and R-phycoerythrin-conjugated streptavidin (Jackson Immunoresearch). Cell surface staining was visualized by fluorescent microscopy and images were taken with the Penguin 800CL digital camera system (Pixera).
(§2) Although the NGL-1 and Netrin-G1 interaction appeared to be specific within the context of the screen, the classical Netrins and their known receptors, DCC and Unc5, were not included in the screen. Thus whether NGL-1 also interacts with Netrin-1 and its receptors was determined. Using the same cell surface binding assay, NGL-1, Netrin-G1, or Netrin-1 were expressed in COS7 cells (rows in FIG. 1a-i) and their ability to bind the IgG Fe fusion protein of NGL-1, Netrin-G1, or DCC (columns in FIG. 1a-i) was determined. […]

[2] = target: T1, DCC expressed on COS cells (human, UniProt P43146 26-1447); assay: cell surface binding assay on transfected COS7 cells, fluorescence microscopy (data not shown)
T1 construct: whole, on cells
Experimental: as §1, §2

T1 sequence (P43146 26-1447): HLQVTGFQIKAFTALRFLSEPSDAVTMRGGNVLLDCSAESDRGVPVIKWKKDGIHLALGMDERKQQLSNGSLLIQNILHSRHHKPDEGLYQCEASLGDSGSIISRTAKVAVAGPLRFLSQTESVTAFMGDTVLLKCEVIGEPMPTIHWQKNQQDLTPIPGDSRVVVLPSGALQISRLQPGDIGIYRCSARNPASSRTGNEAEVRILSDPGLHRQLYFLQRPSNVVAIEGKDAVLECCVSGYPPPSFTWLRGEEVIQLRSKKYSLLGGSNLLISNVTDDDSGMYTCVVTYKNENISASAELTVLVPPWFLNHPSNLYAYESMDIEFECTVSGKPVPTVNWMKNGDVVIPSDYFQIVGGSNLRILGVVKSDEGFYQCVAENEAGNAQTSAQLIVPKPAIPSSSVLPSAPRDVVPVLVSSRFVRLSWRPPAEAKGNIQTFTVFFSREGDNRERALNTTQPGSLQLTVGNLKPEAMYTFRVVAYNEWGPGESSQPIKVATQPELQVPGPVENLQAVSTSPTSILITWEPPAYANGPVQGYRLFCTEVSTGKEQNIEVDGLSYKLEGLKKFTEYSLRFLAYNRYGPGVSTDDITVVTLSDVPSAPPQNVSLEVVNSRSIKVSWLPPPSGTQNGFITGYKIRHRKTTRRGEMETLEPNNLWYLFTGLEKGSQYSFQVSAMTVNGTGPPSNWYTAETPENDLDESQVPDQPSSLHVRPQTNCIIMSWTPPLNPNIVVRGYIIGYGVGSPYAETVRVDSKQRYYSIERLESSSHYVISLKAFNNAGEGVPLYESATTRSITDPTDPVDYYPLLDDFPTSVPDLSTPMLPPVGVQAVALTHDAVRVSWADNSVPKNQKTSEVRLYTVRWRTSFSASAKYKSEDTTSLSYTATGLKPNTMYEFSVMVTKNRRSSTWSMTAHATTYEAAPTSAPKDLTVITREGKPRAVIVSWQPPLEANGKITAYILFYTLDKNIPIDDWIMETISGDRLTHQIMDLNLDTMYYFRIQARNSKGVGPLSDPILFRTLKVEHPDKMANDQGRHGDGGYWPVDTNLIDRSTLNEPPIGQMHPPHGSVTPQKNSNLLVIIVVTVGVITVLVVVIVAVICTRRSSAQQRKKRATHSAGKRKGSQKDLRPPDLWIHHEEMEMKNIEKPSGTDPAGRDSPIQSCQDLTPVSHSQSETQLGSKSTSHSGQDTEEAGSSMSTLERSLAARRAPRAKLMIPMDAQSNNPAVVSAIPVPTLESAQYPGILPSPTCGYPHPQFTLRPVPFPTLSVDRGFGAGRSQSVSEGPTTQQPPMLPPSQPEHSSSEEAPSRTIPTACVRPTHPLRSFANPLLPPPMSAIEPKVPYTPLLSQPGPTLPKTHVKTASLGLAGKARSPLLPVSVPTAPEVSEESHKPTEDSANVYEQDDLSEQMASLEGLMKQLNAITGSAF

- binding result [1]: no binding
- binding result [2]: no binding
B1: human Netrin-G1-Fc (Fc fusion, UniProt Q9Y2I2-1 29-409, looked up)
chain: HYDLCKTQIYTEEGKVWDYMACQPESTDMTKYLKVKLDPPDITCGDPPETFCAMGNPYMCNNECDASTPELAHPPELMFDFEGRHPSTFWQSATWKEYPKPLQVNITLSWSKTIELTDNIVITFESGRPDQMILEKSLDYGRTWQPYQYYATDCLDAFHMDPKSVKDLSQHTVLEIICTEEYSTGYTTNSKIIHFEIKDRFAFFAGPRLRNMASLYGQLDTTKKLRDFFTVTDLRIRLLRPAVGEIFVDELHLARYFYAISDIKVRGRCKCNLHATVCVYDNSKLTCECEHNTTGPDCGKCKKNYQGRPWSPGSYLPIPKGTANTCIPSISSIGTNVCDNELLHCQNGGTCHNNVRCLCPAAYTGILCEKLRCEEAGSCGS
notes: extracellular domain; also called Netrin-G1-Fc fusion protein; not shown: human IgG1 Fc region
